Reference: patent publication US20140212888A1

Biological target: WT1 (mutant) peptide presented by HLA-A*24:02 on HLA-A*24:02 positive LCL (human)
Experiment: cell-based or functional assay

B1: 37F8-derived TCR, WT1 TCR A12-3/B5-1 (TCR α-chain TRAV12-3/TRAJ52/TRAC, TCR β-chain TRBV5-1/TRBD2/TRBJ2-5/TRBC2) (TCR)
TCR alpha: WVWSQQKEVEQDPGPLSVPEGAIVSLNCTYSNSAFQYFMWYRQYSRKGPELLMYTYSSGNKEDGRFTAQVDKSSKYISLFIRDSQPSDSATYLCATSNAGGTSYGKLTFGQGTILTVHPNIQNPDPAVYQLRDSKSSDKSVCLFTDFDSQTNVSQSKDSDVYITDKTVLDMRSMDFKSNSAVAWSNKSDFACANAFNNSIIPEDTFFPSPESSCDVKLVEKSFETDTNLNFQNLSVIGFR
TCR beta: GPVKAGVTQTPRYLIKTRGQQVTLSCSPISGHRSVSWYQQTPGQGLQFLFEYFSETQRNKGNFPGRFSGRQFSNSRSEMNVSTLELGDSALYLCASSYGERERKGETQYFGPGTRLLVLEDLKNVFPPEVAVFEPSEAEISHTQKATLVCLATGFYPDHVELSWWVNGKEVHSGVSTDPQPLKEQPALNDSRYCLSSRLRVSATFWQNPRNHFRCQVQFYGLSENDEWTQDRAKPVTQIVSAEAWGRADCGFTSESYQQGVLSATILYE
- cytotoxic activity (%): 73%
